Reference: the supplement of paper PMC9112550, “Optimization of the antimicrobial peptide Bac7 by deep mutational scanning” (BMC Biology, 2022)

Tested on: Escherichia coli TOP10
Experiment: shrunken log2 fold change of peptide-encoding DNA abundance (4.5 h post-induction vs induction); higher = less antimicrobial activity (less host growth inhibition)
Details: time post-induction: 4.5 h; library: site-saturation at positions 5, 18, 19, 20
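Also: peptides expressed intracellularly from a pBAD plasmid library in pooled LB shake-flask culture, induced with 0.3% L-arabinose, DNA abundance read by NGS, three biological replicates, DESeq2 with apeglm shrinkage.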

| Sequence | shrunken log2 fold change |
| --- | --- |
| RRIRWRPPRLPRPRPRPICPPRP | -0.0872 |
| RRIRWRPPRLPRPRPRPICVPRP | -0.12 |
| RRIRWRPPRLPRPRPRPICWPRP | 0.646 |
| RRIRWRPPRLPRPRPRPIFAPRP | 0.329 |
| RRIRWRPPRLPRPRPRPIFFPRP | 0.125 |
| RRIRWRPPRLPRPRPRPIFRPRP | 0.0199 |
| RRIRWRPPRLPRPRPRPIGPPRP | -0.0272 |
| RRIRWRPPRLPRPRPRPIGVPRP | 0.0389 |
| RRIRWRPPRLPRPRPRPIHIPRP | -0.694 |
| RRIRWRPPRLPRPRPRPIICPRP | -0.523 |
| RRIRWRPPRLPRPRPRPIINPRP | -0.609 |
| RRIRWRPPRLPRPRPRPIIVPRP | -0.138 |
| RRIRWRPPRLPRPRPRPIKTPRP | 0.00902 |
| RRIRWRPPRLPRPRPRPILDPRP | 0.187 |
| RRIRWRPPRLPRPRPRPILPPRP | -0.0759 |
| RRIRWRPPRLPRPRPRPIMLPRP | 0.464 |
| RRIRWRPPRLPRPRPRPINQPRP | -0.0913 |
| RRIRWRPPRLPRPRPRPINVPRP | -0.0356 |
| RRIRWRPPRLPRPRPRPIPMPRP | 0.112 |
| RRIRWRPPRLPRPRPRPIQHPRP | 0.00853 |
| RRIRWRPPRLPRPRPRPIRAPRP | -0.0266 |
| RRIRWRPPRLPRPRPRPIRKPRP | 0.636 |
| RRIRWRPPRLPRPRPRPIRVPRP | 0.0983 |
| RRIRWRPPRLPRPRPRPISVPRP | -0.186 |
| RRIRWRPPRLPRPRPRPITIPRP | -0.162 |

| Sequence | shrunken log2 fold change |
| --- | --- |
| RRIRWRPPRLPRPRPRPIVCPRP | 0.0105 |
| RRIRWRPPRLPRPRPRPIVHPRP | -0.175 |
| RRIRWRPPRLPRPRPRPIYLPRP | -0.674 |
| RRIRWRPPRLPRPRPRPKAMPRP | 0.176 |
| RRIRWRPPRLPRPRPRPKCPPRP | -0.00278 |
| RRIRWRPPRLPRPRPRPKDKPRP | 0.077 |
| RRIRWRPPRLPRPRPRPKIVPRP | -0.272 |
| RRIRWRPPRLPRPRPRPKKAPRP | 0.149 |
| RRIRWRPPRLPRPRPRPKKDPRP | 0.223 |
| RRIRWRPPRLPRPRPRPKLAPRP | 1.03 |
| RRIRWRPPRLPRPRPRPKMFPRP | -0.0838 |
| RRIRWRPPRLPRPRPRPKNGPRP | -0.156 |
| RRIRWRPPRLPRPRPRPKQKPRP | 0.0665 |
| RRIRWRPPRLPRPRPRPKQPPRP | 0.334 |
| RRIRWRPPRLPRPRPRPKQRPRP | 0.473 |
| RRIRWRPPRLPRPRPRPKQTPRP | 0.578 |
| RRIRWRPPRLPRPRPRPKSGPRP | -0.0248 |
| RRIRWRPPRLPRPRPRPKSIPRP | -0.017 |
| RRIRWRPPRLPRPRPRPKSRPRP | -0.0202 |
| RRIRWRPPRLPRPRPRPKTTPRP | -0.0128 |
| RRIRWRPPRLPRPRPRPKVFPRP | -0.00123 |
| RRIRWRPPRLPRPRPRPKYKPRP | -0.558 |
| RRIRWRPPRLPRPRPRPLCNPRP | 0.0306 |
| RRIRWRPPRLPRPRPRPLCSPRP | 0.13 |
| RRIRWRPPRLPRPRPRPLCWPRP | 0.513 |

| Sequence | shrunken log2 fold change |
| --- | --- |
| RRIRWRPPRLPRPRPRPLDEPRP | 0.53 |
| RRIRWRPPRLPRPRPRPLDMPRP | 0.14 |
| RRIRWRPPRLPRPRPRPLDQPRP | -0.0549 |
| RRIRWRPPRLPRPRPRPLDVPRP | 0.00856 |
| RRIRWRPPRLPRPRPRPLEKPRP | 0.429 |
| RRIRWRPPRLPRPRPRPLFCPRP | 0.22 |
| RRIRWRPPRLPRPRPRPLFMPRP | -0.286 |
| RRIRWRPPRLPRPRPRPLGRPRP | 0.424 |
| RRIRWRPPRLPRPRPRPLHCPRP | -0.444 |
| RRIRWRPPRLPRPRPRPLIMPRP | -0.0185 |
| RRIRWRPPRLPRPRPRPLLKPRP | -0.0261 |
| RRIRWRPPRLPRPRPRPLMYPRP | -0.0465 |
| RRIRWRPPRLPRPRPRPLNGPRP | -0.0406 |
| RRIRWRPPRLPRPRPRPLPCPRP | 0.118 |
| RRIRWRPPRLPRPRPRPLQLPRP | 0.0501 |
| RRIRWRPPRLPRPRPRPLRYPRP | -0.0913 |
| RRIRWRPPRLPRPRPRPLVGPRP | 0.282 |
| RRIRWRPPRLPRPRPRPLVQPRP | 0.23 |
| RRIRWRPPRLPRPRPRPLYLPRP | -0.5 |
| RRIRWRPPRLPRPRPRPMARPRP | 0.00968 |
| RRIRWRPPRLPRPRPRPMCIPRP | -0.102 |
| RRIRWRPPRLPRPRPRPMCRPRP | -0.117 |
| RRIRWRPPRLPRPRPRPMCSPRP | 0.197 |
| RRIRWRPPRLPRPRPRPMENPRP | 0.0913 |
| RRIRWRPPRLPRPRPRPMFDPRP | 0.139 |

| Sequence | shrunken log2 fold change |
| --- | --- |
| RRIRWRPPRLPRPRPRPMGPPRP | 0.041 |
| RRIRWRPPRLPRPRPRPMGVPRP | -0.00743 |
| RRIRWRPPRLPRPRPRPMHAPRP | 0.542 |
| RRIRWRPPRLPRPRPRPMIFPRP | -0.302 |
| RRIRWRPPRLPRPRPRPMKMPRP | -0.0851 |
| RRIRWRPPRLPRPRPRPMKWPRP | 0.0452 |
| RRIRWRPPRLPRPRPRPMNYPRP | -0.364 |
| RRIRWRPPRLPRPRPRPMRFPRP | 0.00175 |
| RRIRWRPPRLPRPRPRPMTQPRP | 0.0159 |
| RRIRWRPPRLPRPRPRPMVIPRP | -0.14 |
| RRIRWRPPRLPRPRPRPMVLPRP | -0.243 |
| RRIRWRPPRLPRPRPRPMWIPRP | 0.135 |
| RRIRWRPPRLPRPRPRPMYTPRP | 0.0906 |
| RRIRWRPPRLPRPRPRPNAEPRP | 0.181 |
| RRIRWRPPRLPRPRPRPNALPRP | 0.15 |
| RRIRWRPPRLPRPRPRPNAQPRP | -0.0306 |
| RRIRWRPPRLPRPRPRPNDAPRP | 0.0398 |
| RRIRWRPPRLPRPRPRPNDGPRP | -0.00211 |
| RRIRWRPPRLPRPRPRPNEQPRP | -0.00804 |
| RRIRWRPPRLPRPRPRPNFPPRP | 0.0284 |
| RRIRWRPPRLPRPRPRPNHAPRP | 0.601 |
| RRIRWRPPRLPRPRPRPNLDPRP | 0.278 |
| RRIRWRPPRLPRPRPRPNLQPRP | 0.0402 |
| RRIRWRPPRLPRPRPRPNLVPRP | -0.0198 |
| RRIRWRPPRLPRPRPRPNLWPRP | 0.587 |

| Sequence | shrunken log2 fold change |
| --- | --- |
| RRIRWRPPRLPRPRPRPNNSPRP | -0.723 |
| RRIRWRPPRLPRPRPRPNPPPRP | 0.206 |
| RRIRWRPPRLPRPRPRPNPSPRP | 0.219 |
| RRIRWRPPRLPRPRPRPNQEPRP | -0.119 |
| RRIRWRPPRLPRPRPRPNREPRP | -0.0677 |
| RRIRWRPPRLPRPRPRPNRPPRP | 0.078 |
| RRIRWRPPRLPRPRPRPNRWPRP | 0.218 |
| RRIRWRPPRLPRPRPRPNRYPRP | 0.0333 |
| RRIRWRPPRLPRPRPRPNSDPRP | -0.258 |
| RRIRWRPPRLPRPRPRPNSGPRP | 0.0642 |
| RRIRWRPPRLPRPRPRPNYIPRP | -0.57 |
| RRIRWRPPRLPRPRPRPNYYPRP | -0.705 |
| RRIRWRPPRLPRPRPRPPCHPRP | 0.0912 |
| RRIRWRPPRLPRPRPRPPCRPRP | -0.0876 |
| RRIRWRPPRLPRPRPRPPENPRP | 0.0933 |
| RRIRWRPPRLPRPRPRPPIHPRP | -0.448 |
| RRIRWRPPRLPRPRPRPPIVPRP | 0.19 |
| RRIRWRPPRLPRPRPRPPKLPRP | 0.152 |
| RRIRWRPPRLPRPRPRPPLLPRP | 0.395 |
| RRIRWRPPRLPRPRPRPPLYPRP | 0.188 |
| RRIRWRPPRLPRPRPRPPMIPRP | -0.103 |
| RRIRWRPPRLPRPRPRPPPEPRP | 0.822 |
| RRIRWRPPRLPRPRPRPPPFPRP | 0.22 |
| RRIRWRPPRLPRPRPRPPPVPRP | 0.931 |
| RRIRWRPPRLPRPRPRPPQVPRP | 0.35 |

| Sequence | shrunken log2 fold change |
| --- | --- |
| RRIRWRPPRLPRPRPRPPRFPRP | 0.326 |
| RRIRWRPPRLPRPRPRPPSAPRP | 0.744 |
| RRIRWRPPRLPRPRPRPPVEPRP | 0.392 |
| RRIRWRPPRLPRPRPRPPVTPRP | 0.283 |
| RRIRWRPPRLPRPRPRPPWFPRP | 0.218 |
| RRIRWRPPRLPRPRPRPPWKPRP | 0.24 |
| RRIRWRPPRLPRPRPRPPWRPRP | 0.696 |
| RRIRWRPPRLPRPRPRPQACPRP | 0.145 |
| RRIRWRPPRLPRPRPRPQAFPRP | 0.0509 |
| RRIRWRPPRLPRPRPRPQCKPRP | 0.132 |
| RRIRWRPPRLPRPRPRPQDGPRP | 0.0557 |
| RRIRWRPPRLPRPRPRPQEDPRP | -0.0221 |
| RRIRWRPPRLPRPRPRPQEWPRP | 0.248 |
| RRIRWRPPRLPRPRPRPQFRPRP | -0.0234 |
| RRIRWRPPRLPRPRPRPQFVPRP | -0.1 |
| RRIRWRPPRLPRPRPRPQGMPRP | -0.225 |
| RRIRWRPPRLPRPRPRPQHLPRP | -0.678 |
| RRIRWRPPRLPRPRPRPQIAPRP | 0.141 |
| RRIRWRPPRLPRPRPRPQLPPRP | -0.00654 |
| RRIRWRPPRLPRPRPRPQPHPRP | 0.134 |
| RRIRWRPPRLPRPRPRPQPNPRP | 0.127 |
| RRIRWRPPRLPRPRPRPQPYPRP | -0.166 |
| RRIRWRPPRLPRPRPRPQQHPRP | -0.056 |
| RRIRWRPPRLPRPRPRPQSFPRP | -0.108 |
| RRIRWRPPRLPRPRPRPQSGPRP | 0.186 |
